From FireProtDB (doi:10.1007/s11095-019-2705-5)

Conditions: Homo sapiens, Thermal, fluorescence, whole UniProt chain shown

B1: Bone morphogenetic protein 2 wild type, P12643 (protein)
chain: MVAGTRCLLALLLPQVLLGGAAGLVPELGRRKFAAASSGRPSSQPSDEVLSEFELRLLSMFGLKQRPTPSRDAVVPPYMLDLYRRHSGQPGSPAPDHRLERAASRANTVRSFHHEESLEELPETSGKTTRRFFFNLSSIPTEEFITSAELQVFREQMQDALGNNSSFHHRINIYEIIKPATANSKFPVTRLLDTRLVNQNASRWESFDVTPAVMRWTAQGHANHGFVVEVAHLEEKQGVSKRHVRISRSLHQDEHSWSQIRPLLVTFGHDGKGHPLHKREKRQAKHKQRKRLKSSCKRHPLYVDFSDVGWNDWIVAPPGYHAFYCHGECPFPLADHLNSTNHAIVQTLVNSVNSKIPKACCVPTELSAISMLYLDENEKVVLKNYQDMVVEGCGCR
pH 2, Citrate
  Tm: 33 °C
pH 3, Citrate
  Tm: 41 °C
pH 4.5, Acetate
  Tm: 53 °C
pH 4.5, Malonate
  Tm: 63 °C
pH 5, Acetate
  Tm: 55 °C
pH 6, MES
  Tm: 62 °C
pH 7, MOPS
  Tm: 63 °C
pH 8.5, Tris
  Tm: 61 °C
pH 10, phosphate
  Tm: 59 °C
pH 10.5, CAPS
  Tm: 52 °C
pH 11, CAPS
  Tm: 32 °C
